The values below come from publication PMC7334584 (Proceedings of the National Academy of Sciences of the …, 2020).

B1: Sulfolobus acidocaldarius Rad50 (enzyme, UniProt O33600 1-886, looked up)
chain: MIIREIRLQNFLSHEDTTVKFEGSINVIIGNNGAGKSSIIDGILFGLFKRTNRDIGKNEELIKKGKKSGQVSIKFEINGDTYLIDRNVGETSRDTISLLKEGKIITLARQSTTVNNKIKEILGFDHKILMSTTIIGQGSVESVFSDFPEVMKELLKINKLEMLRESNGPIHSLIKVLTDRIRSLQSIKDILKREEAEIDRLKKEIEEIKVKLENIEREAKEKEDELNQYNTEFNRIKEIKVQYDILSGELSVVNKKIEEIALRLKDFEEKEKRYNKIETEVKELDENREKINTISSFKSILVQIDSLKSQINVVENDLKRKKEKLKRKKELEEKEKQYEEIEKRKKELEEKEKQYEEIEKRLTYVLKNIERQKNEIEKLNYVDTQDLENKIKDVSDRINQIDNELKGLLDRRGDLNGRKEQTLKIYNNLNSIEDDRCPICGRPLDSEHKAKIREEIKVQLLELNKQITALQARINSLIKEREELEATRNKLQLELQKRSKEKGIYEAKLKELQRLEEEKNKLQNEILSLLSYHQEFENIAEKEKELIDYHEEYLKNSDILEEDIQEQEQRLNELNSKLSELEKSYNDYKAKYQFLPADLKSLVSLEERIRRRISELEKLKIEYERLKEEITRMKGLKEEYEKLKEEEDALLNRISELGYSEKRYKQLEEIIDKLSKILSGIEADKGKIKGSLEEKIKNIEEKERNIEELRNKMNEESKLNLGISKLQKLREVLDNKHLQSHIMNIVRNQIENNVNEVIAKFDLSFSAVEIDFVGKSELYVYTASGQKIHINALSGGERISIALALRLAIAKALMNQFSTLILDEPTVNLDEYRRKELIDVIRSAIEIVPQIILVTHDQELIQAGDYIIRVEKKGDTSKVEVSSYDR

The data set “atomic force microscopy” concerns the molecule itself. Description: atomic force microscopy.
Data set [1] deals with B1. The data set can be described thus: atomic force microscopy.

Turning to B1, the binding result in the data set “atomic force microscopy” is recorded as “binds”.

B2: Sulfolobus acidocaldarius Mre11 (enzyme, UniProt Q8NKQ0 1-382, looked up)
chain: MQLLHISDTHLGKRQYNLESREKDVYDTFTQLIDIAINEHVKAVIHTGDLFDVNNPPNRAKLHAIKELKRLKDHNIPFICIAGDHDSPKRKEEIYPQRILEEFNLIKILQKIDNRVKLENVEVYGISHISNVSVNDLKEQLSKVKPETRKSILMLHQGIRTYLPYQGAWQIELSDLPKGFSLYAVGHLHSRRKDYLDGGALIEIAGSPDIMREEEIEDYQKSKKGATLIDMSGDLPSINYINVNIRDQLVLDINVDKIEQSIESVIQKLKENVKNDKKPILHIELEGTVPIRKDVLMTKLQALRDYVEHYRIYKNNIVSIKEENLKTKLKTTYSSLNDIIADYLKGIGYTDEETKIIIDIINEEDEKKVEELLKKFAGVEDK
B2: the binding result in data set [1] is “binds”.
